# Test results taken from patent US20220340660A1 (Merck Sharp & Dohme, published 2022).
# T1: recombinant mouse TIGIT protein (mouse, UniProt P86176 29-148, limits assumed)
# T1 construct: also called mTIGIT recombinant protein; mTIGIT
# T1 sequence (looked up): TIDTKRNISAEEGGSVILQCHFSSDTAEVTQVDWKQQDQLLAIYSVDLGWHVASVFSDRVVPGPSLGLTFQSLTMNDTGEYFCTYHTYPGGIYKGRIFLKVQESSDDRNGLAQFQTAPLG
# T2: mouse TIGIT on mouse TIGIT-overexpressing CHO cells (mouse, UniProt P86176 29-249)
# T2 construct: whole, on cells; also called mTIGIT/CHO; mTIGIT
# T2 sequence (looked up): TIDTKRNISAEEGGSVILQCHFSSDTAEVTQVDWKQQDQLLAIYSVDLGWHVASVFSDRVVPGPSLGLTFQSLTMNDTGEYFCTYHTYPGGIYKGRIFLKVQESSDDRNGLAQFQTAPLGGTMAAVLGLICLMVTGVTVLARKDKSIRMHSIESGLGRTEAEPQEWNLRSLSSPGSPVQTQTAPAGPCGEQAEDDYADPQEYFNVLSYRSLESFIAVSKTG
# Columns and labels:
# [1] = target: T1, recombinant mouse TIGIT protein; experiment: ELISA, plate coated with 1 µg/ml recombinant mouse TIGIT protein (FIG. 1B)
# Description: (§1) FIG. 1A and FIG. 1B are graphs showing identification and characterization of anti-mouse TIGIT monoclonal antibody 18G10. FIG. 1A is a line graph showing binding of anti-mouse TIGIT, clone 18G10, was measured by a cell-based ELISA using mouse TIGIT-overexpressing CHO cells (mTIGIT/CHO). 18G10 was serially diluted as indicated. After 30 min. of incubation, unbound 18G10 antibody was washed out, and the bound 18G10 antibodies were detected using an anti-mouse IgG reagent (closed circles). When the 18G10 was bound in the indicated serial dilutions on mTIGIT/CHO, 8 μg/ml recombinant mouse CD155:hIgG1-Fc (rmCD155) was added to the plate in order to verify whether 18G10 blocked the interaction of rmCD155 with mTIGIT/CHO. After 40 minutes of incubation, unbound recombinant CD155 was washed out, and the bound recombinant CD155 was detected by anti-human IgG reagent (open circles). […] Chimeric anti-TIGIT (18G10):mIgG2a, anti-TIGHT (18G10):mIgG1-[D265A], and isotype controls with mIgG2a or mIgG1-[D265A] isotype were loaded to ELISA plates coated with 1 μg/ml of (left panel) recombinant mouse TIGIT protein or (right panel) goat anti-mouse IgG-Fc antibody. Bound antibodies to each plate were detected. Note: mIgG1* indicates mIgG1-[D265A].
# [2] = target: T2, mouse TIGIT on mouse …; experiment: cell-based ELISA on mTIGIT/CHO cells, detected by anti-mouse IgG
# Description: as §1
binding result [1],binding result [2],Binder
binds,,"chimeric anti-TIGIT (18G10):mIgG2a (antibody, Rat 18G10 variable domains on an intact mouse IgG2a backbone; also called anti-TIGIT:mIgG2a) heavy: QVQLMESGPGLVQPSQTLSLTCTVSGFPLTSYTVHWVRQPPGKGLEWIGAIWSSGSTDYNSALKSRLNINRDSSKSQVFLKMNSLQTEDTAIYFCTKSGWAFFDYWGQGVMVTVSSAKTTAPSVYPLAPVCGDTTGSSVTLGCLVKGYFPEPVTLTWNSGSLSSGVHTFPAVLQSDLYTLSSSVTVTSSTWPSQSITCNVAHPASSTKVDKKIEPRGPTIKPCPPCKCPAPNLLGGPSVFIFPPKIKDVLMISLSPIVTCVVVDVSEDDPDVQISWFVNNVEVHTAQTQTHREDYNSTLRVVSALPIQHQDWMSGKEFKCKVNNKDLPAPIERTISKPKGSVRAPQVYVLPPPEEEMTKKQVTLTCMVTDFMPEDIYVEWTNNGKTELNYKNTEPVLDSDGSYFMYSKLRVEKKNWVERNSYSCSVVHEGLHNHHTTKSFSRTPGK light: DIQMTQSPSLLSASVGDRVTLNCIASQNIYKSLAWYQLKLGEAPKLLIYNANSLQAGIPSRFSGSGSGTDFALTISGLQPEDVATYFCQQYSGGYTFGAGTKLELKRADAAPTVSIFPPSSEQLTSGGASVVCFLNNFYPKDINVKWKIDGSERQNGVLNSWTDQDSKDSTYSMSSTLTLTKDEYERHNSYTCEATHKTSTSPIVKSFNRNEC"
binds,,"chimeric anti-TIGIT (18G10):mIgG1-[D265A] (antibody, Rat 18G10 variable domains on a mouse IgG1 backbone with D265A; also called anti-TIGIT:mIgG1*) heavy: QVQLMESGPGLVQPSQTLSLTCTVSGFPLTSYTVHWVRQPPGKGLEWIGAIWSSGSTDYNSALKSRLNINRDSSKSQVFLKMNSLQTEDTAIYFCTKSGWAFFDYWGQGVMVTVSSAKTTPPSVYPLAPGSAAQTNSMVTLGCLVKGYFPEPVTVTWNSGSLSSGVHTFPAVLQSDLYTLSSSVTVPSSTWPSETVTCNVAHPASSTKVDKKIVPRDCGCKPCICTVPEVSSVFIFPPKPKDVLTITLTPKVTCVVVAISKDDPEVQFSWFVDDVEVHTAQTQPREEQFNSTFRSVSELPIMHQDWLNGKEFKCRVNSAAFPAPIEKTISKTKGRPKAPQVYTIPPPKEQMAKDKVSLTCMITDFFPEDITVEWQWNGQPAENYKNTQPIMDTDGSYFVYSKLNVQKSNWEAGNTFTCSVLHEGLHNHHTEKSLSHSPGK light: DIQMTQSPSLLSASVGDRVTLNCIASQNIYKSLAWYQLKLGEAPKLLIYNANSLQAGIPSRFSGSGSGTDFALTISGLQPEDVATYFCQQYSGGYTFGAGTKLELKRADAAPTVSIFPPSSEQLTSGGASVVCFLNNFYPKDINVKWKIDGSERQNGVLNSWTDQDSKDSTYSMSSTLTLTKDEYERHNSYTCEATHKTSTSPIVKSFNRNEC"
,binds,"anti-mouse TIGIT monoclonal antibody 18G10 (antibody, V domains shown, also called anti-mouse TIGIT, clone 18G10; rat anti-mouse TIGIT (mTIGIT) antibody clone 18G10) VH: QVQLMESGPGLVQPSQTLSLTCTVSGFPLTSYTVHWVRQPPGKGLEWIGAIWSSGSTDYNSALKSRLNINRDSSKSQVFLKMNSLQTEDTAIYFCTKSGWAFFDYWGQGVMVTVSS VL: DIQMTQSPSLLSASVGDRVTLNCIASQNIYKSLAWYQLKLGEAPKLLIYNANSLQAGIPSRFSGSGSGTDFALTISGLQPEDVATYFCQQYSGGYTFGAGTKLELK"
